According to the DeepSol protein solubility set:

Test: soluble on expression in E. coli; label from the status in PepcDB or PDB records

Row | Sequence | soluble on expression in E. coli
1 | MAKELAEKAKEAFLDDDFDVAVDLYSKAIDLDPNCAAFFADRAQANIKIDNFTEAVVDANKAIELEPTLAKAYLRKGTACMKLEEYSTAKAALEKGASVAPNEPKFKKMIDECDLRIAEEEKDLVQPMPPSLPSSSTTPLATEADAPPVPIPAAPAKPMFRHEFYQKPEEAVVTIFAKKVPKENVTVEFGEQILSVVIDVAGEEAYHLQPRLFGKIIPEKCRFEVLSTKVEIRLAKAEIITWASLEYGKGQSVLPKPNVSSALSQRPVYPSSKPAKDWDKLEAEVKKQEKDEKLDGDAAMNKFFSDIYSSADEDMRRAMNKSFAESNGTVLSTNWKEVGTKKVESTPPDGMELKKWEY | not soluble
2 | MSLAFNYDEYLRVDKMPTQWCWGCGDGVVLKCIIRAIEKLGWNMDDVCLVSGIGCSGRMSSYVNCNTVHTTHGRAIAYATGIKLANPSKHVIVVSGDGDTLAIGGNHTIHGCRRNIDLTHIVINNFIYGLTNSQTSPTTPKGFYTVTAQFGNIDPNFDACELTKAAGASFVARGNVIEANKLENLIYKALAHKGYSFVDVFSNCHINLGRKNKMGEAVAMLDWIKNRVVDKAKFESMDFEERKDKFPTGILHEDNSQPEYCHAYEEVRRAAKEKRMVDLGALKEGHHHHHH | not soluble
3 | MRTIERTTIFKRDFKREMKGQHRHLLDTDLRKVIAALANDQPLEIRYRDHALTGNWSNYRDCHIRPDLVLIYRLIGQDRLVLVRLGSHSQLDL | not soluble
4 | GATCLSQYCADKARDGVCDEACNSHACQWDGGDCSLTMENPWANCSSPLPCWDYINNQCDELCNTVECLFDNFECQGNSKTCKYDKYCADHFKDNHCNQGCNSEECGWDGLDCAADQPENLAEGTLVIVVLMPPEQLLQDARSFLRALGTLLHTNLRIKRDSQGELMVYPYYGEVAGSKVFLEIDNRQCVQDSDHCFKNTDAAAALLASHAIQGTLSYPLVSVVSESLTPERTQ | soluble
5 | MGSDKIHHHHHHMSWRYALKNYVTSPETVNDDTVTYFDDKVSIIRDSFPKSECHLLILPRTMQLSRSHPTKVIDAKFKNEFESYVNSAIDHIFRHFQEKFRIKKSDDDKDPCWDDILKDKNKFVRNFVQVGIHSVPSMANLHIHVISKDFHSVRLKNKKHYNSFNTGFFISWDDLPLNGKNLGTDKEIETTYLKEHDLLCCYCQRNFSNKFSLLKKHLELEFNSHFELK | not soluble
6 | MILTPIRRYGAMILMLLTLVFSSEVLAKTHTTTASQKSHLTKASNKQVSSKQEYSRNSAKSSSLPDLRKYPSGTSRKKAFLRTVMPYITSQNAAITAERNWLISKQYQGQWSPAERARLKDIAKRYKVKWSGNTRKIPWNTLLERVDIIPTSMVATMAAAESGWGTSKLARNNNNLFGMKCMKGRCTNAPGKVKGYSQFSSVKESVSAYVTNLNTHPAYSSFRKSRAQLRKADQEVTATAMIHKLKGYSTKGKSYNNYLFAMYQDNQRLIAAHM | not soluble
7 | MSLKVHHLNESRSQRILWLLEELSLPYEIVQHTRDAKTRLAPPSLTDVHPLGKSPVIQDGALVVIESGAIIDYIIRRHGGGRLAPDAASADYDRYQQWLHYAEGSAMLPLMLNMYVGRLGEAGAPLHPRIQSEIANHLAFVNDSLAGRDYFVGDSLTGADIQMSFVPEVAKAMGKLADYPHMAAWIGRMHARPAWKTALDKGGPYALGAEGHHHHHH | soluble
8 | GPGSMIGAPWPPEAVFGNTVDRVASPAPVPERKISIADQLHLPLSRFVEKMSWGEKRRVQILHGMLYPATVYLLDECSTDIDVAERRTVLELVRQECEAKDGCCVYATHIFDGIEGWATHLLLMEGGRVVDFKAVEKLTLPLEDYALQFMSKRAHAARGVDGVAAASLSHGSSAAISTTS | soluble
9 | MKFLITGGAGFIGSNLAFALQERYPEAKIYVLDNFSSGHFKNLIGFKGQVITGDISDPSLWDYVRKNFHFDVIFHEAAITDTTVEDQYFMMKTNADSFRYILDLAVEWNAKVIYASSAGVYGNSPPPMREDKGLEPENIYGFSKLMMDHIAMDYMERYPEMNIVGLRYFNVYGPREDYKGKTASMIYQLAVKMIKGERPRLFKWGEQRRDFVYIKDVIKANLLALEKNVSGIFNVGTGRARSFNEIVSILNKELGTNYEIEYFDCPYDFYQKFTEADLTKIREALGYEPEYSLEEGIKDYLPYIIKRVKK | soluble
10 | MFLKKETFTRGDASVALFELSGLQRIEYLEFIQKRTAKYDTDMDGTTEADKRVAYMQMALEINAWLVSRSLLNGDSSQDADTLYQSVQAKWSYEALDAGAESVLMLSGLSADKKDNASDSGNESEDMTPEKS | not soluble
11 | MTASKIPIKKVCEHCKQEFIALKTTTKYCSHRCNSRAYKAQKREERVRRTELSEQEKKVSDIIDKPYLSISEAGRLLGISRHTIYRYIYSGNLKAYNLSSQRSIVKREDIERMLAERPYEKRQPRDAIVITELYTTDEVCDIHNISRSSLFAIAKRENIPRTYNRGKTYWSKRHIDAYFAKQAPASHIEEWCTAVEIQERFDMTLTAVYNFISDHNIPRKKVKGKSYYSTKHVEAAKGVLDKAAPSYYTVREAMEKFGLTRDQLYQYTKRYNVPKLKQGRNVLISQQELDEVLKPPSITR | not soluble
12 | MFSVLLSVYYNESPYYFRQSIDSLFNQSLQLAEVVLVKDGELTPELENVITEYTAKYLQIRVVPLKQNQGLGKALNEGLKHCSYDLVARMDTDDIAKPNRFEKQIRVFQEHPELDVVGAWIDEFEETTSNIISTRKLPEVHDDICQFAKKRNPENHPVIMFRKQAVLAAGGYQHFPLFEDYYLWIRMLQNGAKFYNIQESLLYFRFSSAMFKRRGGLKYVTTELRFQNLLRNLEFITFSEYLYNVFIRVITRMMPNSLRAILYKKALRK | not soluble
13 | MSTLYHTCDKIEQRIIWIDCEMTGLDVEKQTLCEIALIVTDSELNTIATGPDIVIHQPKEVLDNMEEWPRNTFHENGLMEKIIASKYSMADAENEVIDFLKLHALPGKSPIAGNSIYMDRLFIKKYMPKLDKFAHYRCIDVSTIKGLVQRWYPDYKHPKKQCTHRAFDDIMESIAELKNYRESIFVKSTASSF | not soluble
14 | MPDADVNDFELVDVDQKAADKAIKDLGVKATIDEVCTVGEEGYVVTATDKEGYGGDIKITVGITADGTINGISILSISETAGLGMRATEPAFYEQYQGKQAEKFVVSKDGGDGEPIDALSGATITSRAVTGAVNAALGYYQNAFLEHHHHHH | soluble
15 | MGSDKIHHHHHHMEKLQESMYQLIVETSTNLPNDVRRAIAEAKAKENAGTRAALSLSTITENIKMADENISPICQDTGMPTFEIKVPVGVNQIEMKKAIYAAIEQATKDGKLRPNSVDSLTGKNSGNNLGEGTPVIHFEQWEEDYIDARLILKGGGCENKNIQYSLPAELEGLGRAGRDLDGIRKCIMHSVYQAQGQGCSAGFIGVGIGGDRTTSYSLAKEQLFRKVDDVNPNDDLRKLEEYVLENANKLGIGTMGFGGEATLLGCKVGAMNRLPASFFVSVAYNCWAFRRLGVELDAETGEIKKWLYKDGERVDLNEVASQVAATAETTEVREVVLEAPVTEEQIRELKVGDVVIINGMLHTGRDAIHHHLMDHDAPIDLDGQIIYHCGPVMLQDDAGEWHVKAAGPTTSIREEPYQGDIMKKFGIRAVIGKGGMGPKTLKALQEHGGVYLNAIGGAAQYYADCIKKVKGVDLMEFGIPEAMWHLEVEGFAAIVTMDSHGNSLHEDVDKSSLEKLEQFAEKVF | not soluble
16 | MGSDKIHHHHHHMDRKLLRLYQPLNAYSYNSDSLFLYDFSRPFIKNSGAILDIGSGCGILGLLCARDNPLAIVHLVEKDNKMAFCSQKNALKFPNAQVFEGDFLDFNPPILYDIIVCNPPFYALGSIKSKIKGHARHQSELDFASLVAKVKKCLKPKGYFIFCYEALSLCLVIEGLKSVKLTLETLRFVQSFKDKNAHLMLGAARNNSKSALKVLPPLITHHSKNQSDNTKEVLSIYQTCNTYSIKALLN | not soluble
17 | MAHHHHHHMKINNNEKSYILYQCLKLLIRLHDAGLSHLDLTPENILISDNYEMRLCDLSKSTPIYTYNLRHIKDVNRLYLFESCEPTIAKGAYMPPECWKIYWKYDTMKIKNPLKDLKNITDQEKRKQFYFDVSSADKFMLGVFFFWIWTNGNLWKCSDPLQDEDFFYFVKCDMNFDKFELTRKWPTDLKNIIKVGGAEQRRSG | not soluble
